What is called stoichiometry N is the number of molecules, sites or subunits per partner or assembly.

Substitutions are numbered along the chain they refer to. In names and notes the source's numbering stands.

The text below walks through data of article PMC8567228 (EMBO Reports, 2021).

Data set [1] deals with Rab8a phosphorylated at Thr72 (pRab8a) (human) (UniProt P61006).
Data set [2] addresses T1, pThr72-Rab8a switch 2 phosphopeptide (residues 65-79) (human).
T1 sequence (peptide, phosphothreonine (T*) at Thr72): AGQERFRTITTAYYR

The target in data set [3] is T2, pThr73-Rab10 switch 2 phosphopeptide (human).
T2 sequence (peptide, phosphothreonine (T*) at Thr73): AGQERFHTITTSYYR

Data set [4] deals with T3, Rab8a phosphorylated at Thr72 (pRab8a) (human), P61006.
T3 chain: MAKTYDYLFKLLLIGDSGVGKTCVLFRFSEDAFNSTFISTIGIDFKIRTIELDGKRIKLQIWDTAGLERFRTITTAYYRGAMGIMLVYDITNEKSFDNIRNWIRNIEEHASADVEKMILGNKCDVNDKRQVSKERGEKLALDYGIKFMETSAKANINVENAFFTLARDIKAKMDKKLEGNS
The data set is described as follows: cross-linking; DSBU 9.375 mM, 10 min at RT; 35 µM Rab8a and 28 µM PPM1H pre-incubated 1 h at 30°C in 40 mM HEPES pH 7.5, 150 mM NaCl, 2 mM MgCl2; SDS-PAGE, bands digested and read by LC MS/MS.

Data set [5] deals with the molecule itself. The data set is described as follows: crystal structure; vapour diffusion crystals, space group P212121, two molecules of PPM1H in the asymmetric unit; with Mg2+ (7kpr, 7l4j, 7l4i) or Mn2+ (7n0z).
Data set [6] concerns the molecule itself. Description: SEC-MALS; His6-tagged proteins injected at 2 mg/ml (100 μl) into a Superdex 200 column; DAWN Heleos and Optilab TrEX detectors. (SEC sorts molecules by how far they enter the pores of the column.)

B1: His6-SUMO-PPM1H[K88A], full length (enzyme)
chain: MLTRVKSAVANFMGGIMAGSSGSEHGGGSCGGSDLPLRFPYGRPEFLGLSQDEVECSADHIARPILILKETRRLPWATGYAEVINAGASTHNEDQASCEVLTVKKKAGAVTSTPNRNSSKRRSSLPNGEGLQLKENSESEGVSCHYWSLFDGHAGSGAAVVASRLLQHHITEQLQDIVDILKNSAVLPPTCLGEEPENTPANSRTLTRAASLRGGVGAPGSPSTPPTRFFTEKKIPHECLVIGALESAFKEMDLQIERERSSYNISGGCTALIVICLLGKLYVANAGDSRAIIIRNGEIIPMSSEFTPETERQRLQYLAFMQPHLLGNEFTHLEFPRRVQRKELGKKMLYRDFNMTGWAYKTIEDEDLKFPLIYGEGKKARVMATIGVTRGLGDHDLKVHDSNIYIKPFLSSAPEVRIYDLSKYDHGSDDVLILATDGLWDVLSNEEVAEAITQFLPNCDPDDPHRYTLAAQDLVMRARGVLKDRGWRISNDRLGSGDDISVYVIPLIHGNKLS
Take B1: the initial rate of phosphate release (malachite green time course), 16 μM pThr72-Rab8a protein (GTPγS), against wild-type PPM1H (fold reduction) in data set [1] is over 20. The molecule also showed an initial rate of phosphate release (malachite green time course), 32 μM pThr72-Rab8a peptide, against wild-type PPM1H (fold reduction) in data set [2] of over 20. In data set [3], this molecule had an initial rate of phosphate release (malachite green time course), 32 μM pThr73-Rab10 peptide, against wild-type PPM1H (fold reduction) of over 20.

B2: His6-SUMO-PPM1H[R338A], full length (enzyme)
chain: B1 chain with A88K, R338A
Consider B2, for which, in data set [1], the initial activity of phosphate release (malachite green time course), 16 μM pThr72-Rab8a protein (GTPγS), against wild-type PPM1H (fold reduction) was 2.

B3: Recombinant PPM1H[D288A] used for DSBU cross-linking, Q9ULR3 1-514 (enzyme)
chain: SDLPLRFPYGRPEFLGLSQDEVECSADHIARPILILKETRRLPWATGYAEVINAGKSTHNEDQASCEVLTVKKKAGAVTSTPNRNSSKRRSSLPNGEGLQLKENSESEGVSCHYWSLFDGHAGSGAAVVASRLLQHHITEQLQDIVDILKNSAVLPPTCLGEEPENTPANSRTLTRAASLRGGVGAPGSPSTPPTRFFTEKKIPHECLVIGALESAFKEMDLQIERERSSYNISGGCTALIVICLLGKLYVANAGASRAIIIRNGEIIPMSSEFTPETERQRLQYLAFMQPHLLGNEFTHLEFPRRVQRKELGKKMLYRDFNMTGWAYKTIEDEDLKFPLIYGEGKKARVMATIGVTRGLGDHDLKVHDSNIYIKPFLSSAPEVRIYDLSKYDHGSDDVLILATDGLWDVLSNEEVAEAITQFLPNCDPDDPHRYTLAAQDLVMRARGVLKDRGWRISNDRLGSGDDISVYVIPLIHGNKLS
modifications: not checked
On to B3, for which the stoichiometry N (PPM1H per pRab8a (2:2)) in data set [4] worked out at 1.

B4: PPM1H^DA (residues 33-514, D288A), crystallised form (enzyme, human, UniProt Q9ULR3 33-514, looked up)
chain: B3 chain
notes: PPM1H phosphatase, human, residues 33-514 with D288A (substrate-trapping mutant); Two molecules in the asymmetric unit; two Mg2+ ions at the active site; also called pNIC28-Bsa4-PPM1H^33-514 D288A; source: E. coli, purified (nickel agarose, TEV cleavage, second Ni column, Superdex 200)
As for B4, in data set [5], the binding result is given as “binds”.

B5: PPM1H^DA-LD (residues 33-514, D288A, loop 188-226 replaced by GSGS, C56A), crystallised form (enzyme, human)
chain: SDLPLRFPYGRPEFLGLSQDEVEASADHIARPILILKETRRLPWATGYAEVINAGKSTHNEDQASCEVLTVKKKAGAVTSTPNRNSSKRRSSLPNGEGLQLKENSESEGVSCHYWSLFDGHAGSGAAVVASRLLQHHITEQLQDIVDILKNSAVLGSGSTRFFTEKKIPHECLVIGALESAFKEMDLQIERERSSYNISGGCTALIVICLLGKLYVANAGASRAIIIRNGEIIPMSSEFTPETERQRLQYLAFMQPHLLGNEFTHLEFPRRVQRKELGKKMLYRDFNMTGWAYKTIEDEDLKFPLIYGEGKKARVMATIGVTRGLGDHDLKVHDSNIYIKPFLSSAPEVRIYDLSKYDHGSDDVLILATDGLWDVLSNEEVAEAITQFLPNCDPDDPHRYTLAAQDLVMRARGVLKDRGWRISNDRLGSGDDISVYVIPLIHGNKLS
notes: PPM1H phosphatase, human, residues 33-187 with C56A; short linker that replaces the loop 188-226; PPM1H phosphatase, human, residues 227-514 with D288A; also called pET28a(+)-PPM1H^D288A LoopDEL; source: E. coli, purified (nickel agarose, TEV cleavage, second Ni column, Superdex 200); not shown: His6, N-terminal, cleaved
With B5, the binding result in data set [5] is listed as “binds”.

B6: His6-tagged PPM1H^WT-LD (residues 33-514, loop 188-226 replaced by GSGS, C56A) (enzyme, human)
chain: B5 chain with A221D
notes: PPM1H phosphatase, human, residues 33-187 with C56A; short linker that replaces the loop 188-226; PPM1H phosphatase, human, residues 227-514; Same construct as m2 but with the His6 tag kept for SEC-MALS (calculated about 52.1 kDa); source: E. coli, purified (Ni-agarose, Superdex 200); not shown: His6, N-terminal, kept
As for B6, in data set [6], the “stoichiometry N” value was found to be 2.
